Data from the Human Domainome abundance scans (Beltran et al. 2025).

B1: 1-phosphatidylinositol 4,5-bisphosphate phosphodiesterase gamma-2, residues 772 to 827; numbered along this chain, P16885 (parent)
chain: RTVKALYDYKAKRSDELSFCRGALIHNVSKEPGGWWKGDYGTRIQQYFPSNYVEDI

Variants of: B1
Assay: abundance fitness (aPCA) (normalised: wild type 0, dead -1); higher = more abundant; growth selection in yeast, the domain comes from the species named
Conditions: Homo sapiens

Abundance fitness of substitutions, site by site:
R43: W -0.167, Y -0.228
I44: A -0.196, C -0.074, D -0.64, E -0.133, F -0.237, G -0.811, H 0.026, K -0.008, L -0.111, M 0.019, N -0.224, P -0.845, Q -0.246, S -0.454, T 0.191, V 0.043, W -0.384, Y -0.116
Q45: A -0.335, C -0.33, D -0.753, E -0.819, G -0.278, H -0.458, I -0.658, K -0.51, L -0.923, N -0.273, P -0.699, R -0.92, S -0.472, T -0.651, V -0.942, W -0.916, Y -0.732
Q46: A 0.053, C -0.193, D -0.673, E -0.684, F -0.274, G 0.086, K -0.067, L -0.041, M 0.006, N -0.114, P -0.866, R -0.175, S 0.054, T -0.391, V -0.653, W -0.367, Y -0.223
Y47: C -0.401, D -0.763, E -0.672, F -0.051, G -0.604, H -0.437, I -0.607, L 0.002, M -0.417, N -0.256, Q -0.167, R 0.076, S -0.293, V -0.34
F48: A -1.02, E -1.05, L -0.541, M -0.911, N -0.437, P -0.923, R -0.982, S -0.872, T -0.952, V -0.939, W -0.848
S50: A 0.221, C -0.18, D -0.506, F -0.181, G -0.093, H -0.163, I -0.261, K 0.103, L -0.737, M 0.071, P -0.241, Q -0.398, R 0.035, T -0.352, W -0.412, Y 0.057
N51: A -0.025, C 0.13, E 0.094, F -0.398, G -0.034, H 0.208, I -0.373, K -0.076, L -0.261, M -0.232, P -0.425, Q -0.129, R -0.057, S 0.067, T -0.025, V -0.134, W -0.022, Y -0.155
Y52: A -0.092, C -0.086, D -0.98, E -0.943, F 0.022, G -0.787, H -0.222, I -0.077, K -0.138, L 0.026, M 0.045, N -0.605, P -0.892, Q -0.281, R -0.295, S -0.304, T 0.01, W -0.327
V53: A -0.442, D -0.823, E -0.934, F -0.803, G -0.923, H -0.947, K -0.979, L -0.876, M -0.731, P -1.02, Q -0.731, R -0.836, T -0.177
E54: A -0.119, C -0.197, D -0.291, F -0.04, G -0.276, H -0.272, I -0.353, L -0.434, M -0.316, N -0.196, Q -0.392, R -0.125, T -0.256, V -0.244, W -0.55, Y -0.38
D55: A -0.114, C -0.139, E 0.065, F -0.202, G -0.314, H -0.213, I -0.365
